Source: patent US9629910B2, “Use of Th9 cells and IL-9 for the treatment of melanoma” (THE BRIGHAM AND WOMEN'S HOSPITAL, INC., priority 2011, dated 2017)

Key:
[1] = system: EL-4 T lymphoma cells; experiment: EL-4 tumor growth in mice treated with IL-9; format: in vivo; settings: IL-9 treatment (data not included)
Description: (§1) Melanoma cell lines (B16F10 cells or B16F10-ova cells), T cell lymphoma (EL-4 or ovalbumin expressing EL-4 (EG-7)) and Lewis lung carcinoma (LLC1) were grown in RPMI1640 supplemented with 10% FBS, and penicillin/streptomycin. B16F10 cells (2-4×10^5 cells/150 μl/mouse), EL-4 (2×10^5 cells/150 μA/mouse), or LLC1 (5×10^5 cells/150 μA/mouse) were injected subcutaneously into the right or left flank of the mice and tumor development was monitored over time. Tumor volume was calculated by following formula: (major circumference×minor circumference^2)/2. Mice were sacrificed when there was external necrosis or/and tumor volume reached no greater than 2 cm in any direction.

[2] = system: B16F10 cells; experiment: Growth curve assay of tumor cells with rIL-9 (crystal violet); format: cell-based, mouse; settings: melanoma cells and lung carcinoma cells, rIL-9 at different concentrations (FIG. 10D)
Description: Effect of rIL-9 on growth of B16F10 cells were studied by growth curve assay. B16F10 cells were seeded with rIL-9. After each incubation period cells were fixed (10% acetic acid in 10% ethanol). Cells were subsequently stained with 0.4% crystal violet in 10% ethanol for 30 min. Subsequently, 200 μl 10% acetic acid was added. After 30 min, 100 μL solution was transferred into 96-well plate and OD was measured at 595-wavelength.

[3] = system: Lewis lung carcinoma (LLC-1) cells; experiment: Lewis lung carcinoma (LLC-1) tumor growth in mice treated with rIL-9; format: in vivo
Description: as §1
(§2) rIL-9 (5 μg/100 μA PBS/mouse from Cell Sciences, USA) was injected (ip) from day 0 and every third day till the termination of the experiment. In lewis lung carcinoma (LLC-1) model, rIL-9 (50 ng/100 μl PBS/mouse from RnD systems) was used on every alternate day till the termination of experiment. Unlike Cell Science rIL-9 (source: E. coli), rIL-9 from RnD systems is glycosylated and therefore has stronger biological activity compared to Cell Sciences. Thus, 100 times less rIL-9 was used in LLC-1 tumor model experiments compared to melanoma model experiments.

[4] = system: B16F10 melanoma cells; experiment: B16F10 melanoma growth in mice treated with rIL-9 (i.p.); format: in vivo
Description: as §1, §2

B1: rIL-9: recombinant interleukin-9 cytokine from Cell Sciences, injected ip 5 μg/mouse in melanoma model (protein, UniProt P15247 19-144, looked up)
Interleukin-9: QRCSTTWGIRDTNYLIENLKDDPPSKCSCSGNVTSCLCLSVPTDDCTTPCYREGLLQLTNATQKSRLLPVFHRVKRIVEVLKNITCPSFSCEKPCNQTMAGNTLSFLKSLLGTFQKTEMQRQKSRP
For B1, which EL-4 tumor growth [1] is on record?
Its EL-4 tumor growth is “neither inhibition nor acceleration”.

And the “tumor cell growth in vitro” value [2]?
Its value is “does not affect the growth of these cells in vitro”.

And the tumor development ([3]; mast cell deficient mice (Kit W-sh), LLC-1, vs control (FIG. 5F))?
Its tumor development is “no significant difference in tumor development”.

And the LLC-1 tumor development ([3]; normal WT mice, rIL-9 vs control group (FIG. 5C))?
The LLC-1 tumor development was “significantly suppressed”.

What about the melanoma growth ([4]; Rag1-/- C57BL/6 mice (lack T and B cells), rIL-9 vs PBS (FIG. 5D)) of the same molecule?
The melanoma growth was “significantly slowed melanoma growth”.

What about the tumor development ([4]; mast cell deficient mice (Kit W-sh), B16 melanoma, vs control (FIG. 5E)) of the same molecule?
The tumor development was “no significant difference in tumor development”.

What about the survival of mice ([4]; melanoma bearing mice, rIL-9 (data not shown)) of the same molecule?
Its survival of mice is “increased the survival of mice”.

What about the “melanoma growth in vaccinated mice” value ([4]; mice vaccinated with 1 million irradiated melanoma cells, melanoma cells injected 7 days later, rIL-9 vs PBS) of the same molecule?
The value was “significantly slower melanoma growth”.

And the melanoma growth ([4]; normal WT mice, B16F10 s.c., rIL-9 i.p. vs PBS (FIG. 5B))?
The melanoma growth was “impaired melanoma growth”.
